We go through 43 molecules from patent publication US20210380703A1 (RIGEL PHARMACEUTICALS, published 2021).

Residue numbers refer to the chain shown, from its start.

B1: 372_F03 (antibody, V domains shown)
VH: EVQLLESGGGLVQPGGSLRLSCAASGFTFSSYGMNWVRQAPGKGLEWVAGINYNGGYTSYADSVKGRFTISRDNSKNTLYLQMNSLRAEDTAVYYCARSANWHDTALDYWGQGTLVTVSS
VL: DIQMTQSPSSLSASVGDRVTITCRASQSILSYLNWYQQKPGKAPKLVIYAATSRASGVPSRFSGSGSGTDFTLTISSLQPEDFATYYCQQSYDTPLTFGGGTKVEIK
B2: 373_B04 (antibody, V domains shown)
VH: B1 VH with G55S, T58K, S59G
VL: B1 VL with S31T, V47L, D93E
B3: 376_C06 (antibody, V domains shown)
VH: B1 VH with N101T
VL: B1 VL with T94S
B4: 374_B04 (antibody, V domains shown)
VH: B1 VH with G33S, A49S, G50N, G55S, S59G
VL: B1 VL with L30V, V47L, A51V, D93E, T94S
B5: 372_F09 (antibody, V domains shown)
VH: B1 VH with S30D, G33S, G50N, G55S, T58K, S59G
VL: B1 VL with S31T, R54L, D93S, T94S
B6: 374_E05 (antibody, V domains shown)
VH: B1 VH with G33S
VL: B1 VL with Y32F, L33V, D93N, T94L
B7: 372_A04 (antibody, V domains shown)
VH: B1 VH with S30D, G33S, A49S, G55S
VL: B1 VL with S31T, D93E
B8: 374_C08 (antibody, V domains shown)
VH: B1 VH with S30D, A49S, G55S, T58K, N101T
VL: B1 VL with L33V, V47L, A51V, T94S
B9: 373_F08 (antibody, V domains shown)
VH: B1 VH with G33S, A49S, S99G
VL: B1 VL with S31T, V47L
B10: 374_C01 (antibody, V domains shown)
VH: B1 VH with S30D, A49S, G55S, T58K, S99G
VL: B1 VL with S31T, V47L, D93E
B11: 370_C07 (antibody, V domains shown)
VH: B1 VH with G33S, G50N, T58K, S99G, N101T, A106H
VL: B1 VL with V47L, A55H, D93E, T94S
B12: 370_D03 (antibody, V domains shown)
VH: B1 VH with G33S, G50S, S99G, N101T, A106H
VL: B1 VL with L30I, S31T, V47L, T94L
B13: 374_D05 (antibody, V domains shown)
VH: B1 VH with S30D, G33S, A49S, G55S, S59G, S99G, A106H
VL: B1 VL with S31T, V47L
B14: 369_H08 (antibody, V domains shown)
VH: B1 VH with G33S, G55S, T58K, S99G, N101T, A106H
VL: B1 VL with L33V, R54L, D93E, T94S
B15: 370_C06 (antibody, V domains shown)
VH: B1 VH with G33S, G50N, T58K, S99G, N101T, A106H
VL: B1 VL with S31T, L33V, V47L, T52S, R54L, A55Q, D93S
B16: 373_F07 (antibody, V domains shown)
VH: B1 VH with G33S, A49S, G55S, T58K, S99G, N101T, A106H
VL: B1 VL with V47L, R54L, D93E
B17: 376_F01 (antibody, V domains shown)
VH: B1 VH with S31D, G33S, T58K, S99G
VL: not shown
B18: 375_H05 (antibody, V domains shown)
VH: B1 VH with G33S, A49S, G50N, S59G, S99G
VL: B1 VL with L33V, V47L
B19: 371_F09 (antibody, V domains shown)
VH: B1 VH with G33S, S99G, N101T, A106H
VL: B1 VL with S31T, V47L, T94N
B20: 376_C08 (antibody, V domains shown)
VH: B1 VH with S30D, G33S, G55S, S59G, S99G, A106H
VL: not shown
B21: 369_C12 (antibody, V domains shown)
VH: B1 VH with G50N, T58K, S59G, S99G, N101T, A106H
VL: B1 VL with S31T, V47L, A55H
B22: 370_E04 (antibody, V domains shown)
VH: B1 VH with G33S, G50N, T58K, S59G, S99G, N101T, A106H
VL: B1 VL with S31T, V47L, A51V, R54L, A55H, D93E
B23: 371_B01 (antibody, V domains shown)
VH: B1 VH with S30D, G33S, A49S, G50N, G55S, S59G, S99G, N101T, A106H
VL: B1 VL with L33V, V47L, R54L, T94L
B24: 374_C09 (antibody, V domains shown)
VH: B1 VH with S30D, A49S, G50S, T58K, S59G, S99G, A106H
VL: B1 VL with L30V, D93E, T94L
B25: 371_E12 (antibody, V domains shown)
VH: B1 VH with S30D, G33S, A49S, G55S, T58K, S99G, N101T, A106H
VL: B1 VL with V47L, R54L
B26: 372_B09 (antibody, V domains shown)
VH: B1 VH with G33S, A49S, G50S, G55S, S99G, N101T, A106H
VL: B1 VL with S31T, V47L, D93E
B27: 375_G05 (antibody, V domains shown)
VH: B1 VH with G33S, S99G
VL: B1 VL with L30V, V47L, A51V, T94S
B28: 368_G03 (antibody, V domains shown)
VH: B1 VH with G33S, A49S, G55S, S99G, N101T
VL: B1 VL
B29: 375_A07 (antibody, V domains shown)
VH: B1 VH with S30D, G33S, A49S, G50S, G55S, S59G, S99G, A106H
VL: B1 VL with S31T, V47L
B30: 375_A12 (antibody, V domains shown)
VH: B1 VH with G33S, A49S, G55S, T58K, S99G
VL: B1 VL with A51V, D93E
B31: 369_H12 (antibody, V domains shown)
VH: B1 VH with G33S, T58K, S99G, N101T, A106H
VL: B1 VL with L30V, S31T, L33V, T94S
B32: 373_C07 (antibody, V domains shown)
VH: B1 VH with S30D, G33S, G55S, S99G, A106H
VL: B1 VL with S31T, D93E
B33: 374_C12 (antibody, V domains shown)
VH: B1 VH with G33S, T58K, S99G
VL: B1 VL with S31T, Y92D, D93N, T94S
B34: 375_E10 (antibody, V domains shown)
VH: B1 VH with G33S, A49S, S99G
VL: B1 VL with T94N
B35: 374_G08 (antibody, V domains shown)
VH: B1 VH with S30D, G33S, A49S, S99G
VL: B1 VL with S31T, L33V, T94S
B36: 375_F02 (antibody, V domains shown)
VH: B1 VH with G33S, G50S, G55S, S99G, A106H
VL: B1 VL with V47L, T94S
B37: 367_A02 (antibody, V domains shown)
VH: B1 VH with S30D, A49S, G50S, G55S, T58K, S59G, S99G, N101T, A106H
VL: B1 VL with L30I, V47L, A51V
B38: 373_H03 (antibody, V domains shown)
VH: B1 VH with G33S, A49S, G55S, T58K, S99G
VL: B1 VL with V47L, A51T, D93E, T94N
B39: 373_G08 (antibody, V domains shown)
VH: B1 VH with S30D, G33S, A49S, G50N, S99G
VL: B1 VL with S31T, V47L, R54L, T94S
B40: 374_B03 (antibody, V domains shown)
VH: B1 VH with S30D, G33S, A49S, S99G
VL: B1 VL with S31T, T94S
B41: 369_F09 (antibody, V domains shown)
VH: B1 VH with N35H, S99G, N101T, A106H
VL: B1 VL with S31T, L33V, V47L, T94S
B42: 374_D10 (antibody, V domains shown)
VH: B1 VH with N35H, G50S, S99G, A106H
VL: B1 VL with S31T, L33V, V47L, T94N
B43: 370_F12 (antibody, V domains shown)
VH: B1 VH with S31D, G33S, G50N, S59G, S99G, N101T, A106H
VL: B1 VL with V47L, T52S, R54L, A55Q, T94S

The first assay has as its target ACVR2A on primary human myotubes (human, UniProt P27037 20-513). The experiment in a line: cell-based or functional assay.
Target sequence in this assay (P27037 20-513): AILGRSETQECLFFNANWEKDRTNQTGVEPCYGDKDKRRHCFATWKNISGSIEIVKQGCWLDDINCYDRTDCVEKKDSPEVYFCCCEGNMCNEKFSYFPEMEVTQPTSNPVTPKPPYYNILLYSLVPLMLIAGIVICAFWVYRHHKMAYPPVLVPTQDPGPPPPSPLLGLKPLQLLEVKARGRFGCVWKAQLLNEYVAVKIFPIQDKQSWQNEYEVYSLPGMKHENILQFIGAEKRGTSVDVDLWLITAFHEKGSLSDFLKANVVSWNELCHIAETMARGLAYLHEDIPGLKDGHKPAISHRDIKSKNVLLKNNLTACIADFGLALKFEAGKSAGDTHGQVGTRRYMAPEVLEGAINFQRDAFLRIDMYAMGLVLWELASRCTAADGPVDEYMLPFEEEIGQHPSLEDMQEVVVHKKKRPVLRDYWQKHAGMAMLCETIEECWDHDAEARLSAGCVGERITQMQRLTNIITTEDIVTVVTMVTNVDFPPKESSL
In the case of B1, the “Phospho-SMAD3 Human Skeletal Muscle GDF8” value worked out at 0.0646.
For B2, the “Phospho-SMAD3 Human Skeletal Muscle GDF8” value was 0.0093.
On the same count and under the same terms, in the case of B3 it was 0.0107; in that of B4, 0.0093; in that of B5, 0.018.
In the case of B6, the “Phospho-SMAD3 Human Skeletal Muscle GDF8” value was found to be 0.0497.
As for B7, the “Phospho-SMAD3 Human Skeletal Muscle GDF8” value is 0.0193.
As to B8, the “Phospho-SMAD3 Human Skeletal Muscle GDF8” value was found to be 0.585.

A further assay has the same target. Put plainly: cell-based or functional assay. This is another data set of the same source.
Target sequence in this assay (P27037 20-513): as above
Consider B9, for which the “Phospho-SMAD3 Human Skeletal Muscle GDF8” value is 0.005.
Turning to B10, the “Phospho-SMAD3 Human Skeletal Muscle GDF8” value turned out to be 1.11.
Still for that read-out and setting: in the case of B11 it was 0.0044; in that of B12, 0.0165; in that of B13, 0.0177.
Still for that read-out and setting: the value for B14 was 0.0308; that for B15 was 0.0111.
The same measure, in the same setting: the value for B16 was 0.0069; that for B17 was 0.595.
As for B18, the “Phospho-SMAD3 Human Skeletal Muscle GDF8” value came to 0.0346.
Consider B19, for which the “Phospho-SMAD3 Human Skeletal Muscle GDF8” value amounted to 0.0311.
Turning to B20, the “Phospho-SMAD3 Human Skeletal Muscle GDF8” value came to 0.0605.
Still for that read-out and setting: in the case of B21 it was 0.0094.
As to B22, the “Phospho-SMAD3 Human Skeletal Muscle GDF8” value turned out to be 0.0136.
Same read-out and setting: in the case of B23 it was 0.0076; in that of B24, 0.189; in that of B25, 0.0374.
The same measure, in the same setting: the value for B26 was 0.0182.
On the same count and under the same terms, the value for B27 was 0.0052; that for B28 was 0.299.
For the molecule B29, the “Phospho-SMAD3 Human Skeletal Muscle GDF8” value was 0.014.
Turning to B30, the “Phospho-SMAD3 Human Skeletal Muscle GDF8” value came to 0.0469.
For B31, the “Phospho-SMAD3 Human Skeletal Muscle GDF8” value was determined as 0.0303.
As to B32, the “Phospho-SMAD3 Human Skeletal Muscle GDF8” value turned out to be 0.0048.
The same measure, in the same setting: the value for B33 was 0.027; that for B34 was 0.0091.
On the same count and under the same terms, in the case of B35 it was 0.034; in that of B36, 0.0076.
As to B37, the “Phospho-SMAD3 Human Skeletal Muscle GDF8” value is 0.159.
As to B38, the “Phospho-SMAD3 Human Skeletal Muscle GDF8” value is 0.0129.
Still for that read-out and setting: in the case of B39 it was 0.0057.
Consider B40, for which the “Phospho-SMAD3 Human Skeletal Muscle GDF8” value came out at 0.027.
The same measure, in the same setting: the value for B41 was 0.0325; that for B42 was 0.126.
Still for that read-out and setting: the value for B43 was 0.0066.
